We go through 11 molecules from patent US20250084164A1 (NEXTCURE, published 2025).

Experiment [1] has as its target T1, monomeric LAIR-1-His (R&D Systems) (UniProt Q6GTX8 22-163).
T1 chain: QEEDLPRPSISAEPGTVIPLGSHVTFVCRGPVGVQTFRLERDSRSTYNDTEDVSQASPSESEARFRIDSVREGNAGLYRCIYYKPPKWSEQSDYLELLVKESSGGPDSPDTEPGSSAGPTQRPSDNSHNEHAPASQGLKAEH
Put plainly: BLI (Octet RED96). (In general: In BLI a coated tip is dipped into the sample, and binding shifts an interference pattern.)

The target in experiment [2] is T2, monomeric LAIR-1-His (R&D Systems) (UniProt Q6GTX8 22-163, limits assumed).
T2 construct: Bought protein
T2 sequence (looked up): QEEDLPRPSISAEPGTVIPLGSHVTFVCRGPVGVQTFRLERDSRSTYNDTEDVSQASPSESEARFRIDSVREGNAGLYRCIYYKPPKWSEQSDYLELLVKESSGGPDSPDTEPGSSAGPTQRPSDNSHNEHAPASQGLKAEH
Briefly: BLI (Octet RED96), chimeric mAb on anti-human IgG sensor, monomeric LAIR-1-His in solution. The procedure: Anti-human IgG capture sensors were used to bind to chimeric LAIR-1 mAbs at a density to ensure 1:1 binding to monomeric LAIR-1-His (R&D Systems) in solution at various concentrations. Assay buffer was PBS with 0.05% Tween-20 and regeneration buffer was 10 mM glycine pH 1.5. First, chimeric LAIR-1 mAbs were loaded to sensor. This was followed by association step with LAIR-1-His, and a dissociation step in a separate LAIR-1-His free well. Data was processed using ForteBio data analysis software 9.0. A global fit was used following subtraction of reference wells. The reported average KD values are from at least three independent Octet runs with high confidence of accuracy based on X2 and R2 values. Note the two chimeric versions of 12E10 were tested. Both had relatively low affinity, while the 12E10V2 mAb was removed from usage due to very low affinity.

Usually Kd stands for the concentration at which binding is half-saturated. Low readings indicate tighter binding, high ones weaker binding.

B1: chimeric LAIR-1 mAb 6B2 (antibody, V domains shown)
VH: EVQLVESGGGLVQPKGSLKLSCAASGFSFNINAMNWVRQAPGKGLEWVARIRSKSNNYETYYADSVKDRFTISRDDSESMVYLQMNNLKTEDTAMYYCVRSLWFVYWGQGTLVTVSA
VL: DIQMTQSPASQSASLGESVTITCLASQTIGTWLAWYQQKPGKSPQLLIYAATSLADGVPSRFSGSGSGTKFSFKISSLQAEDFVSYYCQQLYSTPLTFGAGTKLELK
B1 showed a Kd in experiment [1] of 6.53 nM.

B2: 9H6 (antibody, V domains shown)
VH: EVQLVESGGGLVQPKGSLKLSCAASGFSFNTHAMNWVRQAPGKGLEWVARIRTKSNNYATYYADSVKDRFIISRDDSENMVYLQMNNLKTEDTAIYYCVRLRGGFLDYWGQGTTLTVSS
VL: DIQMTQSPASQSASLGESVTITCLASQTIGTWLAWYQQKPGRSPQLLIYAATSLADGVPSRFSGSGSGTKFSFKINSLQAEDFVSYYCQQLYSTPFTFGSGTKLEIK
B2: the dissociation constant (Kd) in experiment [1] turned out to be 11.6 nM. This Kd lies about 1.8-fold higher than the previous one.

B3: chimeric 11B3 (antibody, V domains shown)
VH: EVQLVESGGGLVQPKGSLKLSCAASDFTFNTYAMHWVRQAPGKGLEWVARIRTKSNNYATYYADSVKDRFTISRDDSQSMLYLQMNNLTTEDTAMYYCVRDRYGGAMDYWGQGTSVTVSS
VL: DIQMAQSSSSFSVSLGDRVTITCKASEDIYIRLAWYQQKPGNAPRLLISTATSLETGVPSRFSGSGSGKDYTLSITSLQTEDVATYYCQQYWSTPYTFGGGTRLEIK
notes: Chimeric mAb
On to B3, for which the equilibrium dissociation constant (Kd) in experiment [2] was less than 5 nM; in experiment [1], 1.98 nM.

B4: chimeric 5E1 (antibody, V domains shown)
VH: EVQLQQSGPELVKPGASVKISCKASGYSFTGYFMNWVKQSPEKSLEWIGEIHPSTGSIIYNQKFKAKATLTIDKSSSTAYMQLKSLTSEDSAVYYCARFDYSNSFAYWGQGTLVTVSA
VL: DIQMTQTTSSLSASLGDRVTISCRASQDISNYLNWYQQKPDGTVKLLIYYTSRLHSGVPSRFSGSGSGTDYSLTISNLEQEDIATYFCQQGNTLPRTFGGGTKLEIK
notes: Chimeric mAb
Take B4: the results for the equilibrium dissociation constant (Kd) in experiment [2] and in experiment [1] were less than 5 nM and 3.92 nM, respectively.

B5: chimeric LAIR-1 mAb 4B3 (antibody, V domains shown)
VH: QIQLQQSGAELARPGASVKLPCKASDYIFISYGLNWVRQTTGQGLEWIGEIYPRSGHTYYNEKFKGKATLTADKSSSTAYMELRSLTSEDSAVYFCARRSVFYDYDKNGFDYWGQGTTLTVSS
VL: DIVMKQSPSSLRVSAGEKVTMSCKSSQSLLNSGNQKNYLAWYQQKPGQPPKLLIYGASTRESGVPDRFTGSGSGTDFALTISSVQAEDLAVYYCQNDHSYPFTFGSGTKLEIK
In experiment [1], B5 returned a dissociation constant Kd of 32.3 nM.

B6: 12E10V1 (antibody, V domains shown)
VH: QVQLQQSGAELARPGTSVKLSCKASGYTFTSCGLSWVKQRTGQGLEWIGEIYPSNGNSYYSDKVKDKATLTADKSSSTAYMELRSLTSEDSAVYFCARAYYTNGYYAMDYWGQGTSVTVSS
VL: DIVMTQSQKFMSTSVGDRVSITCKASQNVRSAVAWYQQKPGQSPKTLIYLASNRHTGVPDRFTGSGSGTDFTLTISNVQSEDLADYFCLQHWNYPLTFGAGTKLELK
Regarding B6, in experiment [1], the affinity, expressed as Kd, was 20.2 nM.

B7: chimeric LAIR-1 mAb 5A6 (antibody, V domains shown)
VH: QVQLQQSGAELARPGASVKLSCKASGYTFTSYGISWVKQRTGQGLEWIGEIYPRRGNTYYNEKFKGKATLTADKSSSTAYMELRSLTSEDSAVYFCARQLFAYWGQGTLVTVSA
VL: DIQMTQSPSSLSASLGERVSFSCRASQDIGSSLNWLQQEPDGTIKRLIYATSSLDSGVPKRFSGSRSGSDYSLTISSLESEDFVEYYCLQYDSFPYTFGGGTKLEIK
The molecule B7 registered a dissociation constant Kd in experiment [1] of 23.3 nM.

B8: chimeric 1E11 (antibody, V domains shown)
VH: QVQLQQSGPELVKPGASVKLSCKASGYTFTSYDINWVKQRPGQGLEWIGWIYPRDGSTKYNEKLKGKATLTVDTSSRTAYMELHSLTSEDSAVYFCARGGYYDYDGYWGQGTLVTVSA
VL: DIVMTQAAFSNPVTLGTSASISCRSSKSLLHSNGITYLYWYLQKPGQSPQVLIYQMSSLASGVPDRFSSSGSGTEFTLRISRVEAEDVGVYYCAQNLELPLTFGAGTKLELK
notes: Chimeric mAb (mouse variable, human constant)
On to B8, for which the Kd was less than 5 nM in experiment [2] and 1.37 nM in experiment [1].

B9: chimeric LAIR-1 mAb 7G3 (antibody, V domains shown)
VH: QVQLQQSGPELVKPGASVKLSCKASGYTFTTYDINWVKQRPGQGLEWIGWIYPRDGTTKYNEKFKGKATLTVDTSSTTAYMELHSLTSEDSAVYFCARGGYYDYDGYWGQGTLVTVSA
VL: DIVMTQAAFSNPVTLGTSASISCRSSKSLLHSNGITYLYWYLQKPGQSPQVLIYQMSNLASGVPDRFSSSGSGTEFTLRISRVEAEDVGVYYCAQNLEFPLTFGAGTKLELK
notes: Chimeric mAb
Consider B9, for which the dissociation constant (Kd) in experiment [2] is less than 5 nM; in experiment [1] it was 1.63 nM.

B10: chimeric 6G6 (antibody, V domains shown)
VH: EVQLQQSGPELVKPGASVKISCKASGYTFTTYYMNWVKQSHGKSLEWIGNINPDNGITSYNQKFKGKATLTVDKSSSTAYMELRSLTSEDSAVYYCARGKSLAYWGQGTLVTVSA
VL: DIVMTQSHKFMSTSVGDRVSITCKASQNVGTAVAWYQQKPGQSPKLLIYWASIRHTGVPDRFTGSGSGTDFTLTISNVQSEDLADYFCQQYSSHPYTFGGGTKLEIK
notes: Chimeric mAb
Consider B10, for which the figures for the Kd in experiment [2] and in experiment [1] were less than 5 nM and 4.7 nM, respectively.

B11: chimeric LAIR-1 mAb 6F4 (antibody, V domains shown)
VH: QVQLQQSGAELAKPGASVKLSCKASGYTFTSYWMHWVKQRPGQGLEWIGYINPFSGHTKYNQKFKDKATLTADKSSSTAYMQLSSLTYEDSAVYYCARNFDQWGQGTTLTVSS
VL: DIKMTQSPSSMYASLGERVTITCKASQDINSYLSWVQQKPGKSPKTLIDRANRLVDGVPSRFSGSGSGQDYSLTISSLEYEDMGIYYCLQYDEFPPYTFGGGTKLEIK
As for B11, the dissociation constant (Kd) in experiment [1] is 12.8 nM. This counts as double-digit nanomolar.
